Experimental data from paper PMC3448830.

Experiments:
Conditions in all cases: other: substrate, Hanes-Woolf plots, pH 8.5, room temperature, 16 h
NCc1csc(C(=O)O)c1 = test: Substrate activity for GABA-AT; type: biochemical, pig
NCc1ccc(C(=O)O)[nH]1 = test: Substrate activity for GABA-AT; type: biochemical, pig
NCc1coc(C(=O)O)c1 = test: Substrate activity for GABA-AT; type: biochemical, pig
NCc1ccc(C(=O)O)s1 = test: Substrate activity for GABA-AT; type: biochemical, pig
NCc1cocc1C(=O)O = test: Substrate activity for GABA-AT; type: biochemical, pig
NCc1ccc(C(=O)O)o1 = test: Substrate activity for GABA-AT; type: biochemical, pig
NCc1c[nH]c(C(=O)O)c1 = test: Substrate activity for GABA-AT; type: biochemical, pig
NCCCC(=O)O = test: purified protein, by the assay type

GABA-AT (Sus scrofa)
Km (NCc1csc(C(=O)O)c1): 1700 ± 300 µM | Km (NCc1ccc(C(=O)O)[nH]1): 9500 ± 300 µM | kcat (NCc1ccc(C(=O)O)[nH]1): 2.5e-05 ± 3.33e-06 s⁻¹ | kcat/Km (NCc1ccc(C(=O)O)[nH]1): 0.00267 M⁻¹ s⁻¹ | Km (NCc1coc(C(=O)O)c1): 310 ± 70 µM | kcat (NCc1coc(C(=O)O)c1): 3.83e-05 ± 1.67e-06 s⁻¹ | kcat/Km (NCc1coc(C(=O)O)c1): 0.123 M⁻¹ s⁻¹ | Km (NCc1ccc(C(=O)O)s1): 6300 ± 200 µM | kcat (NCc1ccc(C(=O)O)s1): 0.000167 ± 5e-05 s⁻¹ | kcat/Km (NCc1ccc(C(=O)O)s1): 0.0267 M⁻¹ s⁻¹ | Km (NCc1cocc1C(=O)O): 2800 ± 500 µM | kcat (NCc1cocc1C(=O)O): 1.38e-05 ± 8.33e-07 s⁻¹ | kcat/Km (NCc1cocc1C(=O)O): 0.005 M⁻¹ s⁻¹ | Km (NCc1ccc(C(=O)O)o1): 2100 ± 100 µM | kcat (NCc1ccc(C(=O)O)o1): 0.000567 ± 6.67e-05 s⁻¹ | kcat/Km (NCc1ccc(C(=O)O)o1): 0.267 M⁻¹ s⁻¹ | Km (NCc1c[nH]c(C(=O)O)c1): 1400 ± 300 µM | kcat (NCc1c[nH]c(C(=O)O)c1): 5.67e-05 ± 5e-06 s⁻¹ | kcat/Km (NCc1c[nH]c(C(=O)O)c1): 0.04 M⁻¹ s⁻¹ | Km (NCCCC(=O)O): 1300 ± 300 µM | kcat (NCCCC(=O)O): 0.817 s⁻¹ | kcat/Km (NCCCC(=O)O): 643 M⁻¹ s⁻¹
